From patent US20240279334A1 (AMBERSTONE BIOSCIENCES, published 2024) come the findings set out here.

Test [1] deals with human CD3 on T cells (Jurkat reporter cells, human primary T cells) (human) (UniProt P07766). In words: cell-based or functional assay.
Test [2] addresses T1, recombinant human CD3E (ECD) (human, UniProt P07766 23-126).
T1 construct: extracellular domain; This is the coated antigen of the ELISA; also called extracellular domain of human CD3E
As to the kind of experiment: ELISA with human CD3E; % Binding plotted against pH (6.0 to 7.4), relative to pH 6.0; Fab concentration not shown on the sheet. The procedure: (§1) The plates were then blocked with 200 μL ELISA assay diluents with BSA after discarding the coating solution and washing three times with washing buffer (pH-adjusted 1×PBS+0.05% Tween). […] The plates were washed three times with pH-adjusted 1×PBS buffer and incubated with horseradish peroxidase (HRP) conjugated with goat anti-human IgG Fc for about 30 minutes (min) to one hour. After washing three times, the bound HRP enzyme was detected by addition of 100 μL/well […] substrate (BioFX Laboratories, MD, USA) for about 1 to 5 min and then the detection of color was done based on 630 nm absorption. The pH-adjusted 1×PBS buffer of about pH 6.0, 6.1, 6.2, 6.3, 6.4, 6.5, 6.6, 6.7, 6.8, 6.9, 7.0, 7.1, 7.2, 7.3, 7.4, 7.5 or 7.6 can be based on a regular PBS buffer that is substantially the same as the well-known Cold Spring Harbor Lab's recipe which comprises 137 mM NaCl, 2.7 mM KCl, 10 mM Na₂HPO₄, 1.8 mM KH₂PO₄, and optionally 1 mM CaCl₂) and 0.5 mM MgCl₂, wherein the buffer's pH is adjusted using HCl or H₃PO₄. Alternatively, the pH-adjusted 1×PBS buffers can be based on a modified PBS recipe that comprises 118-146 mM NaCl, 2.7 mM KCl, 10 mM Na₂HPO₄, 1.8 mM KH₂PO₄, and optionally 1 mM CaCl₂) and 0.1-0.8 mM MgCl₂, iron (0-9 mM), sulfide (0.8-5 mM), and optionally further comprising one or more components selected from the following: 5-15 mM D-glucose, NaHCO₃(5-20 mM), 0.1 mM NEAA (non-essential amino acids), 2-20 mM lactic acid and 0.1-0.5% BSA, wherein the buffer's pH is adjusted using HCl or H₃PO₄.
On the technique in general: In an ELISA, binding on a coated surface is turned into a signal by an enzyme label.

The target in test [3] is T2, extracellular domain of cynomolgus monkey CD3E (cynomolgus monkey, UniProt Q95LI5 22-117).
T2 construct: extracellular domain; This is the coated antigen of the ELISA; also called cyno CD3
T2 sequence (looked up): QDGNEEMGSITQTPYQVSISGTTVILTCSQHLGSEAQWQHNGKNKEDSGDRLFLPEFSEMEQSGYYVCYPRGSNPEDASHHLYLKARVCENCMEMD
As to the kind of experiment: ELISA with monkey CD3E; % Binding plotted against pH (6.0 to 7.4), relative to pH 6.0; Fab concentration not shown on the sheet. As to the method:
as §1, with “Alternatively, the pH-adjusted 1×PBS buffers can be based on a modified PBS recipe that comprises 118-146 mM NaCl, 2.7 mM KCl, 10 mM Na₂HPO₄, 1.8 mM KH₂PO₄, and optionally 1 mM CaCl₂) and 0.1-0.8 mM MgCl₂, iron (0-9 mM), sulfide (0.8-5 mM), and optionally further comprising one or more components selected from the following: 5-15 mM D-glucose, NaHCO₃(5-20 mM), 0.1 mM NEAA (non-essential amino acids), 2-20 mM lactic acid and 0.1-0.5% BSA, wherein the buffer's pH is adjusted using HCl or H₃PO₄.” left out

Substitutions are numbered along the chain they refer to.

Sequence of human CD3 on T cells (Jurkat reporter cells, human primary T cells) (human) (P07766 23-207): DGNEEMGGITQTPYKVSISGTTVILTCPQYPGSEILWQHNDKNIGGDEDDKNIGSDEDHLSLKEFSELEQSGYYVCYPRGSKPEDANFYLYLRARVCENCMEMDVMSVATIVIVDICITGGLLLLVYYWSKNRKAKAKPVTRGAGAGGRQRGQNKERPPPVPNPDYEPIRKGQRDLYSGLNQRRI
T1 sequence (P07766 23-126): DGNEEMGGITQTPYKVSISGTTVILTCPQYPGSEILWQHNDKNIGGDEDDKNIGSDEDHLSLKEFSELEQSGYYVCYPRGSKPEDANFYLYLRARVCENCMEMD

B1: CD3(h10.v39)×TROP-2(RS7.v1) assembled in a human IgG1-Fc (Knobs-in-Holes) (bispecific antibody, not shown: a dimerising Fc or GST)
heavy: EVQLVQSGAEVKKPGASVKVSCKASGYTFTSYYTHWVRQAPGQGLEWIGWIYPGDFNTKFNEKFKGRVTLTADTSASTAYMELSSLRSEDTAVYYCARDHYGYYYFDYWGQGTLVTVSS
light: DIVMTQSPDSLAVSLGERATINCKSSQSLLNSRTRHNYLAWYQQKPGQPPKLLIYWATTRASGVPDRFSGSGSGTDFTLTISSLQAEDVAVYYCIQSYTGRTFGGGTKVEIK
VH: EVQLQQSGSELKKPGASVKVSCKASGYTFTNYGMNWVKQAPGQGLKWMGWINTYTGEPTYTDDFKGRFAFSLDTSVSTAYLQISSLKADDTAVYFCARGGFGSSYWYFDVWGQGSLVTVSS
VL: DIQLTQSPSSLSASVGDRVSITCKASQDVSIAVAWYQQKPGKAPKLLIYSASYRYTGVPDRFSGSGSGTDFTLTISSLQPEDFAVYYCQQHYITPLTFGAGTKVEIK
In test [1], B1 registered a percent killing of MDA-MB-468 cells at the pH 6.6 ECmax dose, pH 7.4 of 16% and a percent killing of TROP-2-high MDA-MB-468 cells, pH 6.6 of 100%.

B2: CD3 (h10.v38)×TROP-2 (RS7.v1) hIgG1-Fc (KiH) (bispecific antibody, not shown: a dimerising Fc or GST)
heavy: B1 heavy with T34Y
light: B1 light
VH: B1 VH
VL: B1 VL
On to B2, for which, in test [1], the T cell mediated killing of DU-145 cells, EC50, pH 6.9 is 144 nM; the T cell mediated killing of MDA-MB-468 cells, EC50, pH 6.6 was determined as 0.3 nM; the T cell mediated killing of MDA-MB-468 cells, EC50, pH 7.0 is 9 nM; the T cell mediated killing of MDA-MB-468 cells, ECmax, pH 6.6 stood at 30 nM. In test [1], the fold reduction of MDA-MB-468 killing potency with human PBMCs (E:T about 5.5:1), pH 7.4 against pH 6.6 was 80 fold.

B3: h10.v38 (Fab) (Fab, V domains shown)
VH: B1 heavy with T34Y
VL: B1 light
notes: Tested as a Fab
Turning to B3, the binding result in test [2] was “binds”.

B4: h10.v1 (Fab) (Fab, V domains shown)
VH: B1 heavy with T34V, H100A, G102S
VL: B1 light with H36K, A61D, G100T
notes: Tested as a Fab; the Fab constant domains are not; also called non-pH-selective conventional control clone; conventional anti-CD3 control antibody
Regarding B4, the binding result in test [2] and in test [3] was “binds” each time.

B5: h10.v27 (Fab) (Fab, V domains shown)
VH: B1 heavy with T34Y
VL: B1 light with A61D
notes: Tested as a Fab
B5: the binding result in test [2] is “binds”.

B6: h10.v23 (Fab) (Fab, V domains shown)
VH: B1 heavy with T34V
VL: B1 light
notes: Purified and used as a Fab; also called anti-CD3 clone h10.v23
Take B6: in test [2], the binding result is “binds”.

B7: h10.v49 (Fab) (Fab, V domains shown)
VH: B1 heavy with T34Y, G102H, Y103Q
VL: B1 light
notes: Tested as a Fab
As for B7, in test [2], the binding result is “binds”.
